{"source": "paper PMC5716094", "binders": {"B1": {"name": "R5 duplex (dsDNA)", "DNA 1": "GTTAGGGTTAGGGTTAGGGTTAGGGTTAGGGTTAG", "DNA 2": "CTAACCCTAACCCTAACCCTAACCCTAACCCTAAC"}, "B2": {"name": "R2 duplex (dsDNA)", "DNA 1": "GTTAGGGTTAGGGTTAG", "DNA 2": "CTAACCCTAACCCTAAC"}}, "key": {"ΔBTRF2 [1]": {"target": "T1, ΔBTRF2 (human, UniProt Q15554 87-542, del43-86)", "T1 sequence (Q15554 87-542, stated change not applied)": "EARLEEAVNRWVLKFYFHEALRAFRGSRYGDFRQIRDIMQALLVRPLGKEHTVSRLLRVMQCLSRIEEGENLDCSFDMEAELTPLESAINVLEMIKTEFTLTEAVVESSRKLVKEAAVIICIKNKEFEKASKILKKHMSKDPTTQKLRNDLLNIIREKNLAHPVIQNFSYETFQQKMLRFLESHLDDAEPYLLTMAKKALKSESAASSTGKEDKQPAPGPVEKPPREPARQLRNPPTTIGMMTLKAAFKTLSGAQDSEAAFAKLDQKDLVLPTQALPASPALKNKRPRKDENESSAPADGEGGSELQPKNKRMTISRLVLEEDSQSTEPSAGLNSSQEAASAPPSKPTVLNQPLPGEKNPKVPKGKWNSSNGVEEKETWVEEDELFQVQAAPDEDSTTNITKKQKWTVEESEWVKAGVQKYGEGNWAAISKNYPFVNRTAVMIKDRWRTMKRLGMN", "assay": "fluorescence anisotropy"}, "TRF2 [2]": {"target": "T2, TRF2 (human, UniProt Q15554 43-542)", "assay": "fluorescence anisotropy"}, "B-domain of TRF2": {"target": "T3, B-domain of TRF2 (human, UniProt Q15554 43-86)", "T3 chain": "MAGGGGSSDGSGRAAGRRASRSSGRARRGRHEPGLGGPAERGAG", "assay": "SAXS"}, "ΔBTRF2 [3]": {"target": "T1, ΔBTRF2", "assay": "fluorescence anisotropy", "remark": "listed apart in the source"}, "TRF2 [4]": {"target": "T2, TRF2", "assay": "fluorescence anisotropy", "remark": "listed apart in the source"}}, "note": "Read-outs that look alike come from different tables or passages of the source.", "data": [{"binder": "B1", "values": [{"measurement": "binding signal", "setting": "ΔBTRF2 [1]", "value": "~2", "unit": "fold higher Kd than TRF2"}, {"measurement": "binding signal", "setting": "TRF2 [2]", "value": "~2", "unit": "fold lower Kd than ΔBTRF2"}]}, {"binder": "B2", "values": [{"measurement": "binding result", "setting": "B-domain of TRF2", "value": "binds"}, {"measurement": "binding result", "setting": "ΔBTRF2 [3]", "value": "binds"}, {"measurement": "binding signal", "setting": "TRF2 [4]", "value": "~2", "unit": "fold lower Kd than ΔBTRF2"}]}]}
